Experimental data taken from paper PMC8350011, “Interactions between semaphorins and plexin–neuropilin receptor complexes in the membranes of live cells” (The Journal of Biological Chemistry, 2021).

Columns and labels:
Experiment in all cases: PIE-FCCS (pulsed-interleaved excitation fluorescence cross-correlation spectroscopy); single live Cos-7 cells co-expressing eGFP and mCherry fusions, peripheral membrane, no exogenous ligand; 85 to 1245 molecules/μm^2; fraction correlated (fc): median below 0.09 monomer, 0.09-0.17 dimer, above 0.17 higher oligomers (homotypic)
[1] = molecular target: T1, plexin A4ΔSema (human, UniProt Q9HCM2 24-1894, deletes residues 39 to 506); settings: partners not purified
T1 construct: also called plexin A4ΔSema-eGFP; plexin A4ΔSema-mCh; source: Cos-7, transiently transfected, in the membrane of live cells
T1 sequence (looked up): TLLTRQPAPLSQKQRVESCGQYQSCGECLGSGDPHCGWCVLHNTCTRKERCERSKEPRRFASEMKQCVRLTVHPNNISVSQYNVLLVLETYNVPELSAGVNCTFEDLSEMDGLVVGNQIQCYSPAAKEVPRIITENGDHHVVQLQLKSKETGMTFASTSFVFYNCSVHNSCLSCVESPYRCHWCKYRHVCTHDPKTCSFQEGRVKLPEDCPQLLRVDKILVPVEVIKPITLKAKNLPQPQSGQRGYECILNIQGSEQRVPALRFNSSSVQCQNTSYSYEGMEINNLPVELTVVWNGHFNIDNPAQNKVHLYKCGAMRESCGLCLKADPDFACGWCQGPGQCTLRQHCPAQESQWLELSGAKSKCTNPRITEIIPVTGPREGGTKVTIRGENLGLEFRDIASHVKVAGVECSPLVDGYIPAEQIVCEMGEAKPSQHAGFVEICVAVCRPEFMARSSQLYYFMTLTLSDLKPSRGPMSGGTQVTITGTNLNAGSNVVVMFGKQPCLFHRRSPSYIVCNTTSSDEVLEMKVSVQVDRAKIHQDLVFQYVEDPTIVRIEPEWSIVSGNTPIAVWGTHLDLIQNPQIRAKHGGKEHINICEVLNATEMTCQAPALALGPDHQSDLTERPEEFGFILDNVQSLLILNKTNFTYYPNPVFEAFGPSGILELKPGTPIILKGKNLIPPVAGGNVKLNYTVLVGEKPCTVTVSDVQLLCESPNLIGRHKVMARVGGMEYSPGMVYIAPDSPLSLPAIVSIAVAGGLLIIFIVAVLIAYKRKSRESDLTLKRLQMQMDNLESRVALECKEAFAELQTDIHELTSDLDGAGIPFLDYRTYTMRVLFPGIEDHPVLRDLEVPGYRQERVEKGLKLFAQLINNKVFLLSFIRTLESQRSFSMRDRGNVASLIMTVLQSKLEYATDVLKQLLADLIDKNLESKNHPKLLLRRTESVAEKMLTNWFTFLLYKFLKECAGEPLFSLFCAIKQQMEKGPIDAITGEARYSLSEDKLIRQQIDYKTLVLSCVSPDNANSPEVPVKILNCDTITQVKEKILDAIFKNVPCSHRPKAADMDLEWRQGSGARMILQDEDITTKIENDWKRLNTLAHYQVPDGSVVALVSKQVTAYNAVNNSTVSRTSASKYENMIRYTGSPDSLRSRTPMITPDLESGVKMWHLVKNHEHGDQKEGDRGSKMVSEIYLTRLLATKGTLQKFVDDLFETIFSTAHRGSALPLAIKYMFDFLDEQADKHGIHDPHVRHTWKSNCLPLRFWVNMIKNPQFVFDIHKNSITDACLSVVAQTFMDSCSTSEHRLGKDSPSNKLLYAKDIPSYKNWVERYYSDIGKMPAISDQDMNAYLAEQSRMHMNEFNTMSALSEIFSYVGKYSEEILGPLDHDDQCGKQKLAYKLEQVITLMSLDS

[2] = molecular target: T2, plexin A4 (human, UniProt Q9HCM2 24-1894); settings: partners not purified
T2 construct: Two constructs (eGFP and mCherry fusions); The N1 vectors probably put the fluorescent protein at the C-terminus; also called plexin A4-eGFP; plexin A4-mCh; source: Cos-7, transiently transfected, in the membrane of live cells

[3] = molecular target: the molecule itself

B1: plexin A2 (receptor, human, UniProt O75051 35-1894, looked up)
chain: MPQFSTFHSENRDWTFNHLTVHQGTGAVYVGAINRVYKLTGNLTIQVAHKTGPEEDNKSCYPPLIVQPCSEVLTLTNNVNKLLIIDYSENRLLACGSLYQGVCKLLRLDDLFILVEPSHKKEHYLSSVNKTGTMYGVIVRSEGEDGKLFIGTAVDGKQDYFPTLSSRKLPRDPESSAMLDYELHSDFVSSLIKIPSDTLALVSHFDIFYIYGFASGGFVYFLTVQPETPEGVAINSAGDLFYTSRIVRLCKDDPKFHSYVSLPFGCTRAGVEYRLLQAAYLAKPGDSLAQAFNITSQDDVLFAIFSKGQKQYHHPPDDSALCAFPIRAINLQIKERLQSCYQGEGNLELNWLLGKDVQCTKAPVPIDDNFCGLDINQPLGGSTPVEGLTLYTTSRDRMTSVASYVYNGYSVVFVGTKSGKLKKIRADGPPHGGVQYEMVSVLKDGSPILRDMAFSIDQRYLYVMSERQVTRVPVESCEQYTTCGECLSSGDPHCGWCALHNMCSRRDKCQQAWEPNRFAASISQCVSLAVHPSSISVSEHSRLLSLVVSDAPDLSAGIACAFGNLTEVEGQVSGSQVICISPGPKDVPVIPLDQDWFGLELQLRSKETGKIFVSTEFKFYNCSAHQLCLSCVNSAFRCHWCKYRNLCTHDPTTCSFQEGRINISEDCPQLVPTEEILIPVGEVKPITLKARNLPQPQSGQRGYECVLNIQGAIHRVPALRFNSSSVQCQNSSYQYDGMDISNLAVDFAVVWNGNFIIDNPQDLKVHLYKCAAQRESCGLCLKADRKFECGWCSGERRCTLHQHCTSPSSPWLDWSSHNVKCSNPQITEILTVSGPPEGGTRVTIHGVNLGLDFSEIAHHVQVAGVPCTPLPGEYIIAEQIVCEMGHALVGTTSGPVRLCIGECKPEFMTKSHQQYTFVNPSVLSLNPIRGPESGGTMVTITGHYLGAGSSVAVYLGNQTCEFYGRSMSEIVCVSPPSSNGLGPVPVSVSVDRAHVDSNLQFEYIDDPRVQRIEPEWSIASGHTPLTITGFNLDVIQEPRIRVKFNGKESVNVCKVVNTTTLTCLAPSLTTDYRPGLDTVERPDEFGFVFNNVQSLLIYNDTKFIYYPNPTFELLSPTGVLDQKPGSPIILKGKNLCPPASGGAKLNYTVLIGETPCAVTVSETQLLCEPPNLTGQHKVMVHVGGMVFSPGSVSVISDSLLTLPAIVSIAAGGSLLLIIVIIVLIAYKRKSRENDLTLKRLQMQMDNLESRVALECKEAFAELQTDINELTSDLDRSGIPYLDYRTYAMRVLFPGIEDHPVLRELEVQGNGQQHVEKALKLFAQLINNKVFLLTFIRTLELQRSFSMRDRGNVASLIMTGLQGRLEYATDVLKQLLSDLIDKNLENKNHPKLLLRRTESVAEKMLTNWFAFLLHKFLKECAGEPLFMLYCAIKQQMEKGPIDAITGEARYSLSEDKLIRQQIEYKTLILNCVNPDNENSPEIPVKVLNCDTITQVKEKILDAVYKNVPYSQRPRAVDMDLEWRQGRIARVVLQDEDITTKIEGDWKRLNTLMHYQVSDRSVVALVPKQTSSYNIPASASISRTSISRYDSSFRYTGSPDSLRSRAPMITPDLESGVKVWHLVKNHDHGDQKEGDRGSKMVSEIYLTRLLATKGTLQKFVDDLFETLFSTVHRGSALPLAIKYMFDFLDEQADRHSIHDTDVRHTWKSNCLPLRFWVNVIKNPQFVFDIHKGSITDACLSVVAQTFMDSCSTSEHRLGKDSPSNKLLYAKDIPSYKSWVERYYADIAKLPAISDQDMNAYLAEQSRLHAVEFNMLSALNEIYSYVSKYSEELIGALEQDEQARRQRLAYKVEQLINAMSIES
notes: Two constructs (pEGFP-N1 and pmCh-N1, EcoR1 and Kpn1 sites); the N1 vectors probably put the fluorescent protein at the C-terminus; also called plexin A2-eGFP; plexin A2-mCh; source: Cos-7, transiently transfected, in the membrane of live cells
- median fraction correlated (fc) [1]: 0.23
- median fraction correlated (fc) [2]: 0.08
- median fraction correlated (fc) [3]: 0.09
- stoichiometry N [3]: 2
